For 1 molecule, Fas ligand expression and cytotoxic ratio results are on record in patent US20030079244A1, “Agent for treatment of exocrine gland disorders and transgenic mouse useful for screening the same” (R-TECH UENO, LTD., priority 1997, published 2003).

For data set [1], the system named is normal mouse spleen cells. The data set is described as follows: Effect of IL-10 on the expression of Fas ligand (flow-cytometry). It is filed as cell-based. As to conditions: treated in vitro, analyzed 48 hours after the treatment; versus non-stimulated cells. How it is done:
In order to study the role of IL-10 in Fas-ligand expression, normal mouse spleen cells were isolated, treated with mouse recombinant IL-10 in vitro and then analyzed with flow-cytometry 48 hours after the treatment.

Data set [2] deals with salivary gland epithelial cells. Briefly: Cytotoxicity test against salivary gland epithelial cells (51Cr release). It is filed as cell-based. To be noted: CD4-positive T-cell effector cells treated with mouse IL-10 (0.1 mg/ml) with or without anti-FASL antibody (10 μg/ml); effector:target 20-fold; 4 hours at 37° C.; 51Cr in supernatant. From the text: Cytotoxicity test against salivary gland epithelial cells
Spleen isolated from a B6 mouse was chopped into small pieces, the cells were collected with a syringe having 22-gage injection needle and the collected cells were passed through a meshed screen to obtain cell suspension. CD4-positive T-cells were isolated from the cell suspension by means of dynabeads to provide effector cells.
Salivary gland of the same mouse as above was immersed in DMEM medium containing 10% fetal calf serum supplemented with collagenase (750 units/ml), EDTA (0.76 mg/ml) and hyaluronidase type IV (500 units/ml) to isolate the salivary gland tissue, and the obtained cells were incubated in DMEM medium containing 10% fetal calf serum for 10 to 14 days in a CO2 incubator. The cultured cells were then analyzed with flow-cytometry and were confirmed that 85-95% of them were epithelial cells, and were used as target cells.
The target cells were labeled with 51Cr. Half of the effector cells were treated with mouse IL-10 (0.1 mg/ml) alone, whereas the other half were treated with mice IL-10 (0.1 mg/ml) and anti mice Fas ligand (FASL) neutralizing antibody (10 μg/ml) . […]
The amount of 51Cr in the supernatant of the respective culture was measured and the cytotoxic ratio was calculated by subtracting the 51Cr amount of the target cells cultured without effector cells.

B1: IL-10: mouse interleukin-10 used to treat effector cells and spleen cells (protein, UniProt P18893 19-178, looked up)
Interleukin-10: SRGQYSREDNNCTHFPVGQSHMLLELRTAFSQVKTFFQTKDQLDNILLTDSLMQDFKGYLGCQALSEMIQFYLVEVMPQAEKHGPEIKEHLNSLGEKLKTLRMRLRRCHRFLPCENKSKAVEQVKSDFNKLQDQGVYKAMNEFDIFINCIEAYMMIKMKS
For the molecule B1, in data set [1], the Fas ligand expression entry is recorded as “Significantly higher amount of Fas ligand expression”. In addition, the cytotoxic ratio in data set [2] was determined as 29.5%.
